# In publication PMC2810336, “Mutational Analysis of Highly Conserved Residues in the Phage PhiC31 Integrase Reveals Key Amino Acids Necessary for the DNA Recombination”:
# T1: phiC31 integrase C376A/G377A (Streptomyces phage phiC31, UniProt Q38194 1-613, C376A;G377A)
# T1 sequence: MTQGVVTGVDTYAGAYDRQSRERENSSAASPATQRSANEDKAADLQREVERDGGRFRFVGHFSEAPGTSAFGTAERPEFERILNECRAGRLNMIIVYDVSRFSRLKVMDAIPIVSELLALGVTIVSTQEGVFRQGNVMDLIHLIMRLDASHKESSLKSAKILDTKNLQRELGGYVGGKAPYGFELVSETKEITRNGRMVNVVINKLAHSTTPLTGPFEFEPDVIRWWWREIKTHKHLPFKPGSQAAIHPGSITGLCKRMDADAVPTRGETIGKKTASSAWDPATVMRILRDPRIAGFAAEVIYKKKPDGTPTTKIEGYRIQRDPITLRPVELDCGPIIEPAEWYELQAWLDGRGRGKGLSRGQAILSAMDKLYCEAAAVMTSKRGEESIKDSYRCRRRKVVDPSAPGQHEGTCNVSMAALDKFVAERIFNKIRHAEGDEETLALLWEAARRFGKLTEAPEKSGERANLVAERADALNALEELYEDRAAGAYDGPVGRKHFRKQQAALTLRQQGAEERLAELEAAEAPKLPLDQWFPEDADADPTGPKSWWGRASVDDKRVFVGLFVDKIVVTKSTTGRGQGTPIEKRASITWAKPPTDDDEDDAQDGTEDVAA
# T2: phiC31 integrase Y393A (Streptomyces phage phiC31, UniProt Q38194 1-613, Y393A)
# T2 sequence: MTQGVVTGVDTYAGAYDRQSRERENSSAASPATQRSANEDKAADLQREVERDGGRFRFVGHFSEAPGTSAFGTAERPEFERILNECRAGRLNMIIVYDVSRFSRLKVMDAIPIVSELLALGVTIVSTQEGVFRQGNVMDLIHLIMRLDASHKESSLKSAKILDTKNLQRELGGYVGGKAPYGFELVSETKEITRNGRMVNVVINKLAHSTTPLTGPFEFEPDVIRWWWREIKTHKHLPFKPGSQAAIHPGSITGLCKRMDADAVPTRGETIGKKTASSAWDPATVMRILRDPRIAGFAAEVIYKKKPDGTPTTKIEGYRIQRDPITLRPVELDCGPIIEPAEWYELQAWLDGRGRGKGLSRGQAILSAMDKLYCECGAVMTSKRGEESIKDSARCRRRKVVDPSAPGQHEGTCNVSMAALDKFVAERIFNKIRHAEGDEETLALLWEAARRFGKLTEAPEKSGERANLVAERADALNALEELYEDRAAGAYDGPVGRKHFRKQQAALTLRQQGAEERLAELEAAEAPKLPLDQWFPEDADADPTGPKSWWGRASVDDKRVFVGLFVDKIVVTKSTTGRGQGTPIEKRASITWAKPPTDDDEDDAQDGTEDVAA
# T3: phiC31 integrase WT (Streptomyces phage phiC31, UniProt Q38194 1-613)
# T3 sequence: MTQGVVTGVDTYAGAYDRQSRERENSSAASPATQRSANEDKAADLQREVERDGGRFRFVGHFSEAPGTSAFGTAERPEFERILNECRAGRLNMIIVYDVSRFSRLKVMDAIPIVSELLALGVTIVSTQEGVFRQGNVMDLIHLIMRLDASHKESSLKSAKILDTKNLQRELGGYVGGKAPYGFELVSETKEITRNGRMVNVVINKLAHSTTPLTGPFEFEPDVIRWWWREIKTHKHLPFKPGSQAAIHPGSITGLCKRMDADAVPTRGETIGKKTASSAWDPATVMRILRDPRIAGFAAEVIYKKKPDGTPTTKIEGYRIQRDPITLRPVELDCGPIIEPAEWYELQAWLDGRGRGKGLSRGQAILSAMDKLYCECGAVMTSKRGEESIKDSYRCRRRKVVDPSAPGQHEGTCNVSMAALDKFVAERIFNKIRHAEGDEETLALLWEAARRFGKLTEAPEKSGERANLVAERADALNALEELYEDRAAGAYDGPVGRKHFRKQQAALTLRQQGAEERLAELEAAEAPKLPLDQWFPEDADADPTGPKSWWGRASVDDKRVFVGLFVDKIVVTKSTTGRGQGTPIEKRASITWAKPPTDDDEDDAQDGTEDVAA
# Tests used:
# [1] = target: T1, phiC31 integrase C376A/G377A; test: EMSA; 400 nM protein; 50 ng/ul Poly (competitor (so in the source)), 0.05% NP-40, 50 mM KCl, 5 mM MgCl2, 10 mM EDTA, 20 ul, 0.4 ng (16 fmol) probe; 30 min at room temperature (Methods) or 30 C; pH not stated; synapsis 2 h at 30 C; settings: protein: recombinant; tags: C-terminal His; chain copies: 2; label: biotin, double-strand end-labeled; blunt
# [2] = target: T2, phiC31 integrase Y393A; test: as above; settings: protein: recombinant; tags: C-terminal His; chain copies: 2; label: biotin, double-strand end-labeled; blunt
# [3] = target: T3, phiC31 integrase WT; test: EMSA; complexes I, II, III; reference; competed by excess cold attB; 50 ng/ul Poly (competitor (so in the source)), 0.05% NP-40, 50 mM KCl, 5 mM MgCl2, 10 mM EDTA, 20 ul, 0.4 ng (16 fmol) probe; 30 min at room temperature (Methods) or 30 C; pH not stated; synapsis 2 h at 30 C; settings: protein: recombinant; tags: C-terminal His (pET22b); chain copies: 2; label: biotin, double-strand end-labeled; blunt
binder,measurement,setting,value
attB 41 bp (dsDNA) DNA 1: CGGGTGCCAGGGCGTGCCCTTGGGCTCCCCGGGCGCGTACT DNA 2: AGTACGCGCCCGGGGAGCCCAAGGGCACGCCCTGGCACCCG,binding signal,[1],0 % of WT
same,binding signal,[2],0 % of WT
same,binding signal,[3],100 % of WT
